# Measurements as given in patent US20200102553A1.
# Target: membrane-tethered Cre fusion: signal peptide, flag tag, CD8 transmembrane domain, GzB cleavage site, Cre recombinase (UniProt P01732)
# Experiment: cell-based or functional assay
substance,measurement,value
Granzyme B (GzB) (from UniProt P10144 21-247) (enzyme),"reporter inversion by released Cre, qPCR",3 fold
